Drawing on patent publication US7294481, this text covers bioactivity (A375 assay; HIC with sodium acetate gradient), bioactivity (A375 cell killing neutralisation assay), compared to unfractionated material and Bioassay 10^6 units/mg (n = 2); VA12 cells, production for 3 substances.

The target of this experiment is TNF-α (UniProt P01375). Nature of the experiment: cell-based or functional assay.
UniProt P01375, sequence (P01375 77-233 limits assumed): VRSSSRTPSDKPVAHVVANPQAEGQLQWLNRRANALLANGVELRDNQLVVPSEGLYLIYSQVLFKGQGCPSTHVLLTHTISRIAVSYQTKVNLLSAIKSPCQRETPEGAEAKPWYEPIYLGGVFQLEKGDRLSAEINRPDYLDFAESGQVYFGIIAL

recombinant human TNFR:Fc fusion protein (TNFR-II:Fc), protein A purified, not HIC-fractionated, sequence (chain): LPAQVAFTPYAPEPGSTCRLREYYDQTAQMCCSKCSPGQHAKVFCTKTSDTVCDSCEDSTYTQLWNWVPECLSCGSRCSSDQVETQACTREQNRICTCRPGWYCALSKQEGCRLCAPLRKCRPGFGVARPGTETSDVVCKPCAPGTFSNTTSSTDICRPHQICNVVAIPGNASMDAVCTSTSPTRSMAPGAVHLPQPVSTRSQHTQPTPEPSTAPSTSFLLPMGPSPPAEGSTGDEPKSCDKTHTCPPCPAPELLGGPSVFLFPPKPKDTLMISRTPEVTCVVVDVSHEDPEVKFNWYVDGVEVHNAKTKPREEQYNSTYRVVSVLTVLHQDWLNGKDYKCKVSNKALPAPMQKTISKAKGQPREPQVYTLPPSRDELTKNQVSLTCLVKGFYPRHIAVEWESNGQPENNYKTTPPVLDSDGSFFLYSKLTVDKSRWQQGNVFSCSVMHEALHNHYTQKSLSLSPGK

For the substance “TNFR:Fc, HIC peak 2 fraction (Fc fusion)”, the bioactivity (A375 assay; HIC with sodium acetate gradient) turned out to be 2.71e+06 U/mg and the bioactivity (A375 cell killing neutralisation assay), compared to unfractionated material worked out at 117%.

On to “TNFR:Fc, HIC peak 3 fraction (Fc fusion)”, for which the bioactivity (A375 assay; HIC with sodium acetate gradient) was under 340000 U/mg and the bioactivity (A375 cell killing neutralisation assay), compared to unfractionated material stood at 11%.

As to “recombinant human TNFR:Fc fusion protein (TNFR-II:Fc), protein A purified, not HIC-fractionated”, the Bioassay 10^6 units/mg (n = 2); VA12 cells, production at 28° C., IGF-1 is 2.07e+06 units/mg; the Bioassay 10^6 units/mg (n = 2); VA12 cells, production at 32° C., IGF-1 was 1.62e+06 units/mg; the Bioassay 10^6 units/mg (n = 2); VA12 cells, production at 34° C., IGF-1 stood at 950000 units/mg; the Bioassay 10^6 units/mg (n = 2); VA12 cells, production at 37° C., IGF-1 worked out at 490000 units/mg.
